Test results: US7981997B2, “Growth factor which acts through ErbB-4 RTK” (Yeda Research And Development Co., priority 2000, dated 2011)

Experiments:
[1] = test system: Chinese Hamster Ovary (CHO) cell line; test: Binding to untransfected CHO cells (low ErbB-2, no other ErbB); conditions: cells express low amounts of ErbB-2, no other ErbB receptor
Procedure: To test the prediction that NRG-4 can recognize a surface-expressed ErbB-4, but no other membrane-bound ErbB protein, a Chinese Hamster Ovary (CHO) cell line was employed. […] CHO cells were transfected with plasmid vectors directing expression of ErbB-4, or co-transfected with an ErbB-4 plasmid together with vectors expressing one of the three other ErbB proteins. Two days later, cells were incubated with ^125I-NRG-4, or with a radiolabeled NRG-1 as control, and subsequently the formed ligand-receptor complexes were stabilized by using a covalent crosslinking reagent. Immunoprecipitation of the expressed ErbB proteins allowed analysis of the covalently held complexes. […] Nevertheless, both monomers and dimers of ErbB-4 were formed by the two ligands (detection of NRG-4-containing dimers required longer film exposures).

[2] = target: T1, ErbB-4 co-expressed with ErbB-1 (Homo sapiens, UniProt Q15303); test: Covalent crosslinking to CHO cells co-transfected with ErbB-4 and ErbB-1; type: binding
T1 construct: expressed in transfected cells; host or cells: CHO (Chinese Hamster Ovary) cells, transient co-transfection
Procedure: (§1) CHO cells were transfected with vectors directing expression of the indicated ErbB proteins or their combinations. Two days later cell monolayers were incubated with either ^125I-NRG-1β or ^125I-NRG-4 (EGF-like domains, each at 100 ng/ml). Following 2 hours at 4° C., the covalent crosslinking reagent bis(sulfosuccinimdyl)-suberate (BS^3) was added (1 mM final concentration) and cell extracts prepared after an additional 45 minutes of incubation. The indicated ErbB proteins were then immunoprecipitated with mouse monoclonal antibodies, and the complexes resolved by gel electrophoresis and autoradiography. Arrows mark the locations of monomeric (M) and dimeric (D) receptor complexes.
(§2) Growth factors were labeled with Iodogen (Pierce) as described (Karunagaran et al., 1995). Chemical crosslinking to Chinese Hamster Ovary (CHO) cells engineered to express different ErbB combinations have been performed essentially as described (Tzahar et al., 1996). Briefly, radiolabeled ligands (at 100 ng/ml) were incubated for 2 hours with cell monolayers at 4 C. […] Non-specific binding was determined in the presence of a 100-fold molar excess of the unlabeled ligani. Cells were then washed, lysed in a solution containing 0.1 M NaOH and 0.1% SDS, and radioactivity determined by use of a gamma counter. […]

[3] = target: T2, ErbB-4 (Homo sapiens, UniProt Q15303); test: Ligand displacement analysis of radiolabeled NRG-1β on ErbB-4-expressing CHO cells; type: binding; conditions: displacement of surface-bound radiolabeled NRG-1β
T2 construct: expressed in transfected cells; host or cells: CHO (Chinese Hamster Ovary) cells
Procedure: Displacement analyses of radiolabeled NRG-1β were performed with CHO cells expressing ErbB-4. Cell monolayers (2×10^5 cells) were incubated for 2 hours at 4° C. with a radiolabeled NRG-1 (5 ng/ml) in the presence of increasing concentrations of an unlabeled NRG-4 (closed triangles), or NRG-1β (closed squares). Each data point represents the mean and range (bars) of two determinations.
Growth factors were labeled with Iodogen (Pierce) as described (Karunagaran et al., 1995). Chemical crosslinking to Chinese Hamster Ovary (CHO) cells engineered to express different ErbB combinations have been performed essentially as described (Tzahar et al., 1996). Briefly, radiolabeled ligands (at 100 ng/ml) were incubated for 2 hours with cell monolayers at 4 C. The chemical crosslinking agent BS^3 (1 mM) was then added and the cells were further incubated for 45 minutes at 22 C. […] Non-specific binding was determined in the presence of a 100-fold molar excess of the unlabeled ligani. Cells were then washed, lysed in a solution containing 0.1 M NaOH and 0.1% SDS, and radioactivity determined by use of a gamma counter.
Taken together, the biological effects of NRG-4 and its complex formation with ErbB-4 implied not only specificity of recognition, but also weaker interaction relative to NRG-1. To quantify the interaction, a ligand displacement analysis on ErbB-4-expressing CHO cells was undertaken. […]

[4] = target: T3, surface-expressed ErbB-4 (Homo sapiens, UniProt Q15303); test: Covalent crosslinking to CHO cells transfected with ErbB-4; type: binding; conditions: expression of ErbB-4 alone
T3 construct: expressed in transfected cells; host or cells: CHO (Chinese Hamster Ovary) cells
Procedure: as §1, §2

[5] = test system: D4 cells (32D expressing ErbB-4); test: Long-term cell survival assay in the absence of IL-3 (MTT); type: cell-based; conditions: ligand 100 ng/ml, MTT daily
Procedure: (§3) FIG. 3b show survival effect of NRG-4 on ErbB-expressing derivatives of 32D cells. The indicated derivatives of 32D cells were incubated for various time intervals in the absence of IL-3. […] For control, cells were incubated with medium conditioned by IL-3-producing cells (open triangles), or with no factor (open circles). The extent of cell proliferation was determined daily by using the calorimetric MTT assay. The data presented are the mean±S.D. of 4 determinations. Note that co-expression of ErbB-1 and ErbB-2 (D12 cells) enabled cell survival in the absence of IL-3. The experiment was repeated twice with similar results.
(§4) The establishment of a series of interleukin 3 (IL-3)-dependent 32D myeloid cells expressing all combinations of ErbB proteins has been described (Alimandi et al., 1997; Pinkas-Kramarski et al., 1996; Shelly et al., 1998). Cells were maintained in RPMI medium with 10% fetal bovine serum (FBS) and dilute IL3-containing conditioned medium. […] Cell survival was determined 24 hours later, or after the indicated time intervals, by MTT assay, as previously described (Mosman, 1983). MTT (0.05 mg/ml) was incubated with the analyzed cells for 2 hours at 37 C. Living cells can transform the tetrazolium ring into dark blue formazan crystals, that can be quantified by reading the optical density at 540-630 nm after lysis of the cells with acidic isopropanol. […]

[6] = test system: D24 cells (32D co-expressing ErbB-4 and ErbB-2); test: as above; type: cell-based; conditions: ligand 100 ng/ml, MTT daily
Procedure: as §3, §4

T3 sequence (Q15303 26-1308, species assumed): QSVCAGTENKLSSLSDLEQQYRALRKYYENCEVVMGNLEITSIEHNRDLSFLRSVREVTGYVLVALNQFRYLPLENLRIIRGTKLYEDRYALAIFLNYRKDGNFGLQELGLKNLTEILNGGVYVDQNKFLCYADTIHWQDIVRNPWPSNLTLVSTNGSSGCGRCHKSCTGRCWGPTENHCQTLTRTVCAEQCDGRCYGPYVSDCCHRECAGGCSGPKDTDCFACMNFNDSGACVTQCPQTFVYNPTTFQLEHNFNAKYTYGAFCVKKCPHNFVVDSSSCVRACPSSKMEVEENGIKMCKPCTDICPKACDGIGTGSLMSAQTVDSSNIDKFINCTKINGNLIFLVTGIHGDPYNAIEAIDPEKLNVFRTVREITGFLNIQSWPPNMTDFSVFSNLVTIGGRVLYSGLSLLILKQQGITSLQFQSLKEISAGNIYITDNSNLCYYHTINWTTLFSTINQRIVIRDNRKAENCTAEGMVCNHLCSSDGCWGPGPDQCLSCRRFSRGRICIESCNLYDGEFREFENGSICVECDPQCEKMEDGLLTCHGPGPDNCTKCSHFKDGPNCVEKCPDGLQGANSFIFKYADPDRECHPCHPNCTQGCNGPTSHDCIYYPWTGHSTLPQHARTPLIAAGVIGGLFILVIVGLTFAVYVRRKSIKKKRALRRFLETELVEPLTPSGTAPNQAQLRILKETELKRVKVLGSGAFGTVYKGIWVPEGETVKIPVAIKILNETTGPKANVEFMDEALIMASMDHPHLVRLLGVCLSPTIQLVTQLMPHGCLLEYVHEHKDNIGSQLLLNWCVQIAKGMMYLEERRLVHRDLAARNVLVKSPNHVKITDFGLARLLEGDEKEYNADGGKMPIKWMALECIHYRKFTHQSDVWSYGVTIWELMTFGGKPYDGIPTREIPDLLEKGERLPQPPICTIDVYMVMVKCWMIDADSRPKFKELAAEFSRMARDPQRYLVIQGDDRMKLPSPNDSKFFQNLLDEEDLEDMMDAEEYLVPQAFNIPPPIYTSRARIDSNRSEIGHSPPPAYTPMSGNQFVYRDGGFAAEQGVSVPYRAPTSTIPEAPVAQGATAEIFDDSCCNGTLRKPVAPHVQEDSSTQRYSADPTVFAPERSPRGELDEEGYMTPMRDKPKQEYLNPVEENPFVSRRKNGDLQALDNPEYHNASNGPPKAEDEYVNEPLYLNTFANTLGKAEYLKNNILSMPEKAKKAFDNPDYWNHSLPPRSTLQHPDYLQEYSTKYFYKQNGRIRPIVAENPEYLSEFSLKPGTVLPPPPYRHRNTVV
T2 sequence (Q15303 26-1308, species assumed): as above

heterodimers of ErbB-4 with ErbB-1 ([2]; precipitation with anti-ErbB-1 antibodies): existence of NRG-4-promoted heterodimers | lower binding affinity to ErbB-4 compared with unlabeled NRG-1 [3]: approximately 8 fold | complex formation with ErbB-4 on CHO cells ([4]; 125I-ligand 100 ng/ml): ability to form complexes
B1: NRG-4: synthetic refolded mouse EGF-like domain of NRG-4 (residues 4 to 50, SEQ ID NO:2) (peptide, listed as Mus musculus)
chain: MPTDHEQPCGPRHRSFCLNGGICYVIPTIPSPFCRCIENYTGARCEEVFLPSSSIPSESNLSAAFVVLAVLLTLTIAALCFLCRKGHLQRASSVQCEISLVETNNTRTRHSHREH
binding to untransfected CHO cells [1]: failed to bind | effect of ErbB-1 co-expression on the radioactive signal ([2]; CHO cells, ErbB-4 + ErbB-1): did not significantly affect the radioactive signals | covalent crosslinking signal compared with radioactive NRG-1 [4]: weaker than that observed with a radioactive NRG-1 | survival of D4 cells in the absence of IL-3 [5]: stimulated the survival | survival of D24 cells in the absence of IL-3 [6]: more robust, and akin to the NRG-1-treated controls
